Changes are numbered by the printed parent chain. In names and notes the source's numbering stands. Several values for one entry are separate records, joined by “and”; a condition that tells them apart may be missing. Equal entries are not always repeated.

B1: L4-FGF21ΔH-A129C: Linker-4 conjugated to FGF21ΔH-A129C protein (Table 4; Table 5 row L4) (conjugate, UniProt Q9NSA1 29-209, looked up, variant H1* A129C)
Fibroblast growth factor 21: PIPDSSPLLQFGGQVRQRYLYTDDAQQTEAHLEIREDGTVGGAADQSPESLLQLKALKPGVIQILGVKTSRFLCQRPDGALYGSLHFDPEACSFRELLLEDGYNVYQSEAHGLPLHLPGNKSPHRDPCPRGPARFLPLPGLPPALPEPPGILAPQPPDVGSSDPLSMVGPSQGRSPSYAS
modifications: Linker-4 attached
B2: L2-FGF21ΔH-A129C: Linker-2 conjugated to FGF21ΔH-A129C protein (Table 4; Table 5 row L2) (conjugate, UniProt Q9NSA1 29-209, looked up, variant H1* A129C)
Fibroblast growth factor 21: B1 Fibroblast growth factor 21
modifications: Linker-2 attached
B3: L3-FGF21ΔH-A129C: Linker-3 conjugated to FGF21ΔH-A129C protein (Table 4; Table 5 row L3) (conjugate, UniProt Q9NSA1 29-209, looked up, variant H1* A129C)
Fibroblast growth factor 21: B1 Fibroblast growth factor 21
modifications: Linker-3 attached
B4: L1-FGF21ΔH-A129C: Linker-1 conjugated to FGF21ΔH-A129C protein (Table 4; Table 5 row L1) (conjugate, UniProt Q9NSA1 29-209, looked up, variant H1* A129C)
Fibroblast growth factor 21: B1 Fibroblast growth factor 21
modifications: Linker-1 attached
B5: FGF21ΔH-Knull-H1K: FGF21 lysine-null mutant with H1K, SEQ ID NO:23 (protein, listed as Homo sapiens)
chain: KPIPDSSPLLQFGGQVRQRYLYTDDAQQTEAHLEIREDGTVGGAADQSPESLLQLRALRPGVIQILGVRTSRFLCQRPDGALYGSLHFDPEACSFRELLLEDGYNVYQSEAHGLPLHLPGNRSPHRDPAPRGPARFLPLPGLPPALPEPPGILAPQPPDVGSSDPLSMVGPSQGRSPSYAS
B6: FGF21ΔH-A129C: FGF21 cysteine mutant, SEQ ID NO:9 (protein, listed as Homo sapiens)
chain: B1 Fibroblast growth factor 21
B7: FGF21ΔH-Knull-P2: FGF21 lysine-null mutant, SEQ ID NO:22 (protein, listed as Homo sapiens)
chain: B1 Fibroblast growth factor 21 with K55R, K58R, K68R, K121R, C128A, L145P, P146L
B8: FGF21ΔH-H125C: FGF21 cysteine mutant, SEQ ID NO:6 (protein, listed as Homo sapiens)
chain: B1 Fibroblast growth factor 21 with H124C, C128A
B9: FGF21ΔH-Knull-S181K: FGF21 lysine-null mutant with S181K, SEQ ID NO:24 (protein, listed as Homo sapiens)
chain: B1 Fibroblast growth factor 21 with K55R, K58R, K68R, K121R, C128A, L145P, P146L, S180K
B10: FGF21ΔH-L86C: FGF21 cysteine mutant, SEQ ID NO:14 (protein, listed as Homo sapiens)
chain: B1 Fibroblast growth factor 21 with L85C, C128A, L145P, P146L

Tested on in one series: not listed separately
As to the kind of experiment: Stability of linkers L1-L4 conjugated to FGF21 (LC-MS). The note with it: +4° C., 0 hrs. Format: physicochemical. The procedure:
The following experiment was performed to investigate the chemical stability over 2 weeks of the four linkers upon conjugation to FGF21: each linker was conjugated to FGF21, placed at +4° C. storage conditions, and aliquots were removed and quenched by freezing at specific time points, and linker stability was monitored by LCMS analysis.
The four linkers were dissolved in DMSO from lyophilized stock material. […] L1 was reacted with protein for 30 mins; L2, L3 and L4 were reacted for 2 hrs. The conjugation reaction was quenched by removal of excess linkers through size-exclusion resin. Conjugated FGF21ΔH-A129C protein was placed at +4° C. for stability storage. […] Analysis of linker stability was performed by LC-MS analysis to determine the relative amount of unconjugated protein, protein+linker conjugation, and single and double hydrolysis events of the conjugated protein+linker.
Linker hydrolysis is the critical analytical variable in this experiment. Hydrolysis was monitored by observing the subsequent addition of H2O to the FGF21-linker complex. A single addition of H2O, +(1) H2O, likely indicates the hydrolysis of the active AZD group that is present on all 4 linkers. The addition of a second H2O molecule, +(2) H2O, is a strong indicator of hydrolysis (eg—chemical instability) in the linker. L1 is particularly susceptible because of the presence of a maleimide functional group.
Regarding B1, the “1 linker (protein+linker)” value stood at 46%, the “+(1) H2O” value is reported as 28% and the “+(2) H2O” value is 6%.
For B2 the same measures were 45%, 27% and 6%.
For the molecule B3, the “1 linker (protein+linker)” value was 45%, the “+(1) H2O” value worked out at 30% and the “+(2) H2O” value worked out at 6%.
As for B4, the “1 linker (protein+linker)” value amounted to 49%, the “+(1) H2O” value is 30% and the “+(2) H2O” value came out at 8%.

The series is the same for the next values; noted with them: +4° C., 0 hrs; % of total measured protein.
Consider B1, for which the “0 linker (unconjugated protein)” value was 20%.
In the case of B2, the “0 linker (unconjugated protein)” value stood at 22%.
Same read-out and setting: with B3 the figure was 19%; with B4, 13%.

Still in this series, the particulars now being: +4° C., 24 hrs.
Regarding B1, the “0 linker (unconjugated protein)” value is reported as 20%, the “1 linker (protein+linker)” value is reported as 46%, the “+(1) H2O” value worked out at 27% and the “+(2) H2O” value is reported as 7%.
On to B2, for which the “0 linker (unconjugated protein)” value worked out at 23%, the “1 linker (protein+linker)” value amounted to 43%, the “+(1) H2O” value came to 26% and the “+(2) H2O” value turned out to be 8%.
In the case of B3, the “0 linker (unconjugated protein)” value was found to be 18%, the “1 linker (protein+linker)” value worked out at 47%, the “+(1) H2O” value is 27% and the “+(2) H2O” value was determined as 8%.
On the same counts, the results for B4 are 14%, 41%, 34% and 11%.

The series is the same for the next values; noted with them: +4° C., 72 hrs.
Turning to B1, the “0 linker (unconjugated protein)” value was 21%, the “1 linker (protein+linker)” value is 42%, the “+(1) H2O” value was 30% and the “+(2) H2O” value was determined as 7%.
On the same counts, the results for B2 are 24%, 37%, 32% and 8%.
On the same counts, the results for B3 are 19%, 43%, 30% and 8%.
On the same counts, the results for B4 are 14%, 40%, 35% and 11%.

Still in this series, the particulars now being: +4° C., 168 hrs.
Consider B1, for which the “0 linker (unconjugated protein)” value came to 21%, the “1 linker (protein+linker)” value is 41%, the “+(1) H2O” value is 32% and the “+(2) H2O” value is listed as 6%.
On the same counts, the results for B2 are 24%, 40%, 29% and 7%.
For B3, the “0 linker (unconjugated protein)” value was 19%, the “1 linker (protein+linker)” value was found to be 43%, the “+(1) H2O” value is 29% and the “+(2) H2O” value is given as 8%.
Turning to B4, the “0 linker (unconjugated protein)” value came out at 10%, the “1 linker (protein+linker)” value stood at 33%, the “+(1) H2O” value is given as 40% and the “+(2) H2O” value is recorded as 18%.

The series is the same for the next values; noted with them: +4° C., 336 hrs.
As to B1, the “0 linker (unconjugated protein)” value came out at 22%, the “1 linker (protein+linker)” value was determined as 41% and the “+(1) H2O” value came to 31%.
Turning to B2, the “0 linker (unconjugated protein)” value stood at 26%, the “1 linker (protein+linker)” value came out at 38% and the “+(1) H2O” value is 28%.
Turning to B3, the “0 linker (unconjugated protein)” value worked out at 20%, the “1 linker (protein+linker)” value was determined as 43% and the “+(1) H2O” value turned out to be 29%.
For B4 the same measures were 12%, 28% and 41%.

The same series, now with this note: +4° C., 336 hrs (2 weeks).
As to B1, the “+(2) H2O” value came to 6%.
B2: the “+(2) H2O” value is 8%.
Consider B3, for which the “+(2) H2O” value stood at 8%.
Same read-out and setting: as for B4, the figure is 18%.

Tested on in a further series: not given
Assay: not given
Also noted: species or system Swiss-Webster mice. The note with it: mouse, in vivo, iv. The procedure: The PK of FGF21 antibody conjugates were examined in mice after IV or SC administration. […] Antibody conjugates concentrations in serum were determined using an ELISA which captured the FGF21 portion of the antibody conjugates through a monoclonal anti-hFGF21 antibody bound to a 96-well plate. FGF21 antibody conjugates bound to the plate were detected through an anti-hFc monoclonal antibody, and concentrations were determined using a standard curve of the PK dosing solution diluted into serum-containing assay buffer. SC bioavailability was calculated as the ratio of the area-under the curve (AUC) of the SC serum concentration profile divided by the AUC of the IV serum concentration profile.
The molecule B5 came in with an IV half-life of 16 h.

Still in this series, the particulars now being: mouse, in vivo, sc.
The molecule B5 showed an SC bioavailability of 51% and an SC half-life of 11 h.

The next series concerns Glut1 mRNA expression in differentiated 3T3-L1 adipocytes. Description: Glut1 Taqman assay. Format: cell-based. The note with it: 3T3-L1 adipocytes, 6 hrs, Taqman quantitative real-time PCR; read-out: Glut1 RNA expression EC50. The procedure: Differentiated 3T3-L1 adipocytes were used to measure the Glut1 mRNA expression by qPCR method. Overnight serum starved day 10-14 differentiated 3T3-L1 adipocytes were treated with compounds for 6 hrs. Total RNA was extracted from these cells, and Glut1 and GAPDH mRNA expression was measured using a Quantitect Probe RT-PCR kit and running a quantitative real time PCR reaction in a Taqman machine (Applied Biosystems®). The bioactivity of the compounds was determined by a fold change in Glut1 mRNA levels normalized by the GAPDH mRNA levels from each sample. EC50 values as measurements of the potency of the compounds were obtained from the dose response curves in the assay.
3T3-L1 adipocytes were seeded at day 8 in 24-well tissue culture plates (Falcon®, Cat#353047), and incubated in DMEM complete medium (10% FBS, 2 mM L-glutamine, 1% P/S) at 37° C., 5% CO2. […] The medium was aspirated, and then RNA extracted from the cells using the RNeasy mini Kit according to the manufacturer's instructions. RNA was measured at A260 nm using the Spectramax® Plus spectrophotometer.
As usually defined, the EC50 is the concentration needed to bring the measured effect to its halfway point. For the molecule B6, the EC50 is 16 nM.

The same series, now with this note: 6 hrs.
Turning to B6, the “Glut1 induction in 3T3-L1 adipocytes” value was “dose-dependent Glut1 induction”.

Still in this series, the particulars now being: differentiated 3T3-L1 adipocytes, 6 hrs; read-out: EC50 in Glut1 Taqman assay.
B5: the concentration for a half-maximal effect (EC50) is 6.4 nM and 4.3 nM.
Take B7: the EC50 was 1.2 nM.
For B6, the EC50 was 1.4 nM.
As for B8, the EC50 amounted to 1.2 nM.
Turning to B9, the EC50 stood at 7.5 nM.

Another series deals with Differentiated 3T3-L1 adipocytes. Description: Glucose uptake assay. It is filed as cell-based. The note with it: unconjugated protein; n in brackets. The procedure:
Differentiated 3T3-L1 adipocytes were treated with compounds in the absence of serum for 24 hrs. Cells were then incubated with ^14C-2-deoxyglucose for 1 hr and glucose uptake into the cells was quantitated in Wallac 1450 MicroBeta (Trilux) instrument. Glucose uptake was expressed in counts per min (CPM). EC50 values as measurements of the potency of the compounds were obtained from the dose response curves in the assay.
Turning to B10, the half-maximal effective concentration (EC50) was determined as 62 nM.

These data come from patent publication US8722622B2, “FGF21 conjugates and anti-diabetic uses thereof” (COVX Technologies Ireland, Limited, priority 2010, dated 2014).
